Tested on: Escherichia coli TOP10
Assay: shrunken log2 fold change of peptide-encoding DNA abundance (4.5 h post-induction vs induction); higher = less antimicrobial activity (less host growth inhibition)
Conditions: time post-induction: 4.5 h; library: site-saturation at positions 5, 18, 19, 20
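Also: peptides expressed intracellularly from a pBAD plasmid library in pooled LB shake-flask culture, induced with 0.3% L-arabinose, DNA abundance read by NGS, three biological replicates, DESeq2 with apeglm shrinkage.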

Row | Sequence | shrunken log2 fold change
1 | RRIRQRPPRLPRPRPRPFHLPRP | -0.0558
2 | RRIRQRPPRLPRPRPRPFIEPRP | -0.0062
3 | RRIRQRPPRLPRPRPRPFIFPRP | -0.257
4 | RRIRQRPPRLPRPRPRPFKPPRP | -0.0337
5 | RRIRQRPPRLPRPRPRPFMGPRP | -0.0627
6 | RRIRQRPPRLPRPRPRPFMIPRP | 0.0993
7 | RRIRQRPPRLPRPRPRPFNKPRP | -0.0963
8 | RRIRQRPPRLPRPRPRPFNQPRP | 0.00312
9 | RRIRQRPPRLPRPRPRPFPCPRP | 0.0349
10 | RRIRQRPPRLPRPRPRPFPHPRP | 0.259
11 | RRIRQRPPRLPRPRPRPFPYPRP | 0.0303
12 | RRIRQRPPRLPRPRPRPFQVPRP | 0.0303
13 | RRIRQRPPRLPRPRPRPFRNPRP | 0.033
14 | RRIRQRPPRLPRPRPRPFRYPRP | -0.245
15 | RRIRQRPPRLPRPRPRPFTAPRP | -0.183
16 | RRIRQRPPRLPRPRPRPFVFPRP | -0.273
17 | RRIRQRPPRLPRPRPRPFVWPRP | 0.049
18 | RRIRQRPPRLPRPRPRPFVYPRP | -0.755
19 | RRIRQRPPRLPRPRPRPFWCPRP | 0.0825
20 | RRIRQRPPRLPRPRPRPFYCPRP | -0.314
21 | RRIRQRPPRLPRPRPRPFYNPRP | -0.739
22 | RRIRQRPPRLPRPRPRPFYRPRP | -0.0149
23 | RRIRQRPPRLPRPRPRPGDAPRP | 1.65
24 | RRIRQRPPRLPRPRPRPGDNPRP | -0.203
25 | RRIRQRPPRLPRPRPRPGETPRP | 0.0131

Row | Sequence | shrunken log2 fold change
26 | RRIRQRPPRLPRPRPRPGGDPRP | 0.0869
27 | RRIRQRPPRLPRPRPRPGHNPRP | 0.0106
28 | RRIRQRPPRLPRPRPRPGHQPRP | -0.00101
29 | RRIRQRPPRLPRPRPRPGKAPRP | 0.0185
30 | RRIRQRPPRLPRPRPRPGKIPRP | -0.0789
31 | RRIRQRPPRLPRPRPRPGKRPRP | 0.244
32 | RRIRQRPPRLPRPRPRPGLAPRP | 0.197
33 | RRIRQRPPRLPRPRPRPGLMPRP | -0.0533
34 | RRIRQRPPRLPRPRPRPGMRPRP | 0.941
35 | RRIRQRPPRLPRPRPRPGPEPRP | 0.0674
36 | RRIRQRPPRLPRPRPRPGPWPRP | 0.479
37 | RRIRQRPPRLPRPRPRPGQHPRP | -0.0301
38 | RRIRQRPPRLPRPRPRPGRIPRP | -0.123
39 | RRIRQRPPRLPRPRPRPGTHPRP | -0.00939
40 | RRIRQRPPRLPRPRPRPGTLPRP | -0.0134
41 | RRIRQRPPRLPRPRPRPGVDPRP | 0.244
42 | RRIRQRPPRLPRPRPRPGVIPRP | 0.0679
43 | RRIRQRPPRLPRPRPRPHAAPRP | 0.465
44 | RRIRQRPPRLPRPRPRPHDKPRP | -0.773
45 | RRIRQRPPRLPRPRPRPHFCPRP | 0.0177
46 | RRIRQRPPRLPRPRPRPHFDPRP | -0.000826
47 | RRIRQRPPRLPRPRPRPHFEPRP | 0.154
48 | RRIRQRPPRLPRPRPRPHFRPRP | 0.092
49 | RRIRQRPPRLPRPRPRPHGHPRP | -0.113
50 | RRIRQRPPRLPRPRPRPHILPRP | -0.361

Row | Sequence | shrunken log2 fold change
51 | RRIRQRPPRLPRPRPRPHIPPRP | -0.0245
52 | RRIRQRPPRLPRPRPRPHKAPRP | -0.0398
53 | RRIRQRPPRLPRPRPRPHKDPRP | -0.105
54 | RRIRQRPPRLPRPRPRPHMQPRP | -0.288
55 | RRIRQRPPRLPRPRPRPHNDPRP | -0.421
56 | RRIRQRPPRLPRPRPRPHQYPRP | -0.237
57 | RRIRQRPPRLPRPRPRPHRDPRP | -0.322
58 | RRIRQRPPRLPRPRPRPHRHPRP | -0.284
59 | RRIRQRPPRLPRPRPRPHRTPRP | -0.0723
60 | RRIRQRPPRLPRPRPRPHSMPRP | -0.438
61 | RRIRQRPPRLPRPRPRPHTCPRP | -0.325
62 | RRIRQRPPRLPRPRPRPHTGPRP | -0.18
63 | RRIRQRPPRLPRPRPRPHTMPRP | -0.9
64 | RRIRQRPPRLPRPRPRPHYLPRP | -0.0046
65 | RRIRQRPPRLPRPRPRPHYYPRP | -0.0332
66 | RRIRQRPPRLPRPRPRPIARPRP | -0.0171
67 | RRIRQRPPRLPRPRPRPICCPRP | 0.259
68 | RRIRQRPPRLPRPRPRPIDIPRP | 0.107
69 | RRIRQRPPRLPRPRPRPIEHPRP | 0.0215
70 | RRIRQRPPRLPRPRPRPIFIPRP | -0.472
71 | RRIRQRPPRLPRPRPRPIGCPRP | 0.0253
72 | RRIRQRPPRLPRPRPRPIGEPRP | -0.0171
73 | RRIRQRPPRLPRPRPRPIGGPRP | -0.0328
74 | RRIRQRPPRLPRPRPRPIGSPRP | -0.00968
75 | RRIRQRPPRLPRPRPRPIHSPRP | -0.138

Row | Sequence | shrunken log2 fold change
76 | RRIRQRPPRLPRPRPRPIHWPRP | -0.198
77 | RRIRQRPPRLPRPRPRPIITPRP | -1.01
78 | RRIRQRPPRLPRPRPRPIKCPRP | -0.00607
79 | RRIRQRPPRLPRPRPRPILCPRP | -0.0627
80 | RRIRQRPPRLPRPRPRPILHPRP | -1.25
81 | RRIRQRPPRLPRPRPRPILWPRP | -0.185
82 | RRIRQRPPRLPRPRPRPIMKPRP | -0.0798
83 | RRIRQRPPRLPRPRPRPIMNPRP | -1.23
84 | RRIRQRPPRLPRPRPRPIMTPRP | -0.107
85 | RRIRQRPPRLPRPRPRPIQIPRP | -0.105
86 | RRIRQRPPRLPRPRPRPIQNPRP | -0.11
87 | RRIRQRPPRLPRPRPRPIQRPRP | -0.0376
88 | RRIRQRPPRLPRPRPRPIRPPRP | 0.0227
89 | RRIRQRPPRLPRPRPRPIVGPRP | 0.0288
90 | RRIRQRPPRLPRPRPRPIWGPRP | -0.105
91 | RRIRQRPPRLPRPRPRPIWPPRP | -0.0155
92 | RRIRQRPPRLPRPRPRPIYSPRP | -0.1
93 | RRIRQRPPRLPRPRPRPIYTPRP | 0.036
94 | RRIRQRPPRLPRPRPRPKAHPRP | 0.0165
95 | RRIRQRPPRLPRPRPRPKCDPRP | 0.151
96 | RRIRQRPPRLPRPRPRPKCTPRP | -0.0317
97 | RRIRQRPPRLPRPRPRPKDAPRP | 0.0166
98 | RRIRQRPPRLPRPRPRPKDEPRP | 0.0571
99 | RRIRQRPPRLPRPRPRPKDMPRP | 0.0374
100 | RRIRQRPPRLPRPRPRPKDSPRP | -0.135

Row | Sequence | shrunken log2 fold change
101 | RRIRQRPPRLPRPRPRPKEVPRP | 0.382
102 | RRIRQRPPRLPRPRPRPKFAPRP | 0.0489
103 | RRIRQRPPRLPRPRPRPKGFPRP | -0.219
104 | RRIRQRPPRLPRPRPRPKGVPRP | -0.00208
105 | RRIRQRPPRLPRPRPRPKGYPRP | -0.00146
106 | RRIRQRPPRLPRPRPRPKITPRP | -0.0282
107 | RRIRQRPPRLPRPRPRPKKDPRP | -0.184
108 | RRIRQRPPRLPRPRPRPKKNPRP | 0.0205
109 | RRIRQRPPRLPRPRPRPKLGPRP | 0.00556
110 | RRIRQRPPRLPRPRPRPKLIPRP | -0.0954
111 | RRIRQRPPRLPRPRPRPKMLPRP | 0.0996
112 | RRIRQRPPRLPRPRPRPKNAPRP | 0.0178
113 | RRIRQRPPRLPRPRPRPKNFPRP | -0.0816
114 | RRIRQRPPRLPRPRPRPKNWPRP | 0.139
115 | RRIRQRPPRLPRPRPRPKPRPRP | 0.309
116 | RRIRQRPPRLPRPRPRPKQLPRP | -0.156
117 | RRIRQRPPRLPRPRPRPKRNPRP | 0.29
118 | RRIRQRPPRLPRPRPRPKRRPRP | 0.0204
119 | RRIRQRPPRLPRPRPRPKTIPRP | -0.184
120 | RRIRQRPPRLPRPRPRPKTPPRP | -0.0134
121 | RRIRQRPPRLPRPRPRPKVPPRP | 0.105
122 | RRIRQRPPRLPRPRPRPKYWPRP | -0.309
123 | RRIRQRPPRLPRPRPRPLAIPRP | -0.122
124 | RRIRQRPPRLPRPRPRPLCLPRP | -0.253
125 | RRIRQRPPRLPRPRPRPLDEPRP | 0.0698

Row | Sequence | shrunken log2 fold change
126 | RRIRQRPPRLPRPRPRPLEGPRP | -0.0228
127 | RRIRQRPPRLPRPRPRPLFYPRP | -0.251
128 | RRIRQRPPRLPRPRPRPLGMPRP | -0.218
129 | RRIRQRPPRLPRPRPRPLHLPRP | -0.617
130 | RRIRQRPPRLPRPRPRPLIRPRP | -0.966
131 | RRIRQRPPRLPRPRPRPLKRPRP | -0.0432
132 | RRIRQRPPRLPRPRPRPLMLPRP | -0.213
133 | RRIRQRPPRLPRPRPRPLNNPRP | -0.586
134 | RRIRQRPPRLPRPRPRPLPSPRP | -0.0393
135 | RRIRQRPPRLPRPRPRPLPWPRP | 0.117
136 | RRIRQRPPRLPRPRPRPLQMPRP | 0.122
137 | RRIRQRPPRLPRPRPRPLQRPRP | -0.0166
138 | RRIRQRPPRLPRPRPRPLTVPRP | 0.0325
139 | RRIRQRPPRLPRPRPRPLVIPRP | -0.682
140 | RRIRQRPPRLPRPRPRPLWDPRP | -0.0887
141 | RRIRQRPPRLPRPRPRPMADPRP | 0.207
142 | RRIRQRPPRLPRPRPRPMAQPRP | 0.006
143 | RRIRQRPPRLPRPRPRPMDAPRP | 0.05
144 | RRIRQRPPRLPRPRPRPMFCPRP | 0.0313
145 | RRIRQRPPRLPRPRPRPMFPPRP | -0.181
146 | RRIRQRPPRLPRPRPRPMFRPRP | -0.0146
147 | RRIRQRPPRLPRPRPRPMFWPRP | 0.0915
148 | RRIRQRPPRLPRPRPRPMGKPRP | -0.167
149 | RRIRQRPPRLPRPRPRPMHEPRP | 0.187
150 | RRIRQRPPRLPRPRPRPMHNPRP | -0.28

Source: the supplement of paper PMC9112550, “Optimization of the antimicrobial peptide Bac7 by deep mutational scanning” (BMC Biology, 2022)
